Series [1] has as its system T1, SntA.
T1 construct: cell wall-attached protein of 813 residues; preparation from earlier work [10]
Nature of the series: HPLC at […] nm of […]'-AMP formed, initial rates, Michaelis-Menten fit. The class given is biochemical, Streptococcus suis. Conditions: 50 mM Tris-HCl pH 7.5, 2 mM MnCl2, 0.1 mg/mL BSA, 37 °C; read-out: K m ^1 /.

For series [2], the system named is Nc1ccn([C@@H]2O[C@H](CO)[C@H]3OP(=O)(O)O[C@H]32)c(=O)n1. Nature of the series: purified protein. The following applies: 50 mM Tris-HCl pH 7.5, 2 mM MnCl2, 0.1 mg/mL BSA, 37 °C, excess alkaline phosphatase.
Excerpt: (§1) coupled alkaline phosphatase, colorimetric phosphate release, initial rates, Michaelis-Menten fit on S. enterica CpdB
Series [3] relates to Nc1nc2c(ncn2[C@@H]2O[C@@H]3COP(=O)(O)O[C@H]4[C@@H](O)[C@H](n5cnc6c(N)ncnc65)O[C@@H]4COP(=O)(O)O[C@H]3[C@H]2O)c(=O)[nH]1. As to the kind of experiment: purified protein. Conditions: 50 mM Tris-HCl pH 7.5, 2 mM MnCl2, 0.1 mg/mL BSA, 37 °C.
Series [4] relates to Nc1nc2c(ncn2[C@@H]2O[C@@H]3CO[P@](=O)(O)O[C@H]4[C@@H](O)[C@H](n5cnc6c(=O)[nH]c(N)nc65)O[C@@H]4CO[P@](=O)(O)O[C@H]3[C@H]2O)c(=O)[nH]1. Nature of the series: purified protein. Conditions: 50 mM Tris-HCl pH 7.5, 2 mM MnCl2, 0.1 mg/mL BSA, 37 °C.
Series [5] deals with Nc1nc2c(ncn2[C@@H]2O[C@H](CO)[C@@H](OP(=O)(O)O)[C@H]2O)c(=O)[nH]1. As to the kind of experiment: purified protein. Conditions: 50 mM Tris-HCl pH 7.5, 2 mM MnCl2, 0.1 mg/mL BSA, 37 °C.
Excerpt: (§2) colorimetric phosphate release, initial rates, Michaelis-Menten fit on S. enterica CpdB
Series [6] has as its system Nc1nc2c(ncn2[C@@H]2O[C@H](CO)[C@H]3OP(=O)(O)O[C@H]32)c(=O)[nH]1. As to the kind of experiment: purified protein. The following applies: 50 mM Tris-HCl pH 7.5, 2 mM MnCl2, 0.1 mg/mL BSA, 37 °C, excess alkaline phosphatase.
Excerpt: as §1
The test system of series [7] is Nc1ncnc2c1ncn2[C@@H]1O[C@@H]2COP(=O)(O)O[C@H]3[C@@H](O)[C@H](n4cnc5c(N)ncnc54)O[C@@H]3COP(=O)(O)O[C@H]3[C@@H](O)[C@H](n4cnc5c(N)ncnc54)O[C@@H]3COP(=O)(O)O[C@H]3[C@@H](O)[C@H](n4cnc5c(N)ncnc54)O[C@@H]3COP(=O)(O)O[C@H]2[C@H]1O. Nature of the series: purified protein. The following applies: 50 mM Tris-HCl pH 7.5, 2 mM MnCl2, 0.1 mg/mL BSA, 37 °C.
The subject of series [8] is Nc1ncnc2c1ncn2[C@@H]1O[C@@H]2COP(=O)(O)O[C@H]3[C@@H](O)[C@H](n4cnc5c(N)ncnc54)O[C@@H]3COP(=O)(O)O[C@H]3[C@@H](O)[C@H](n4cnc5c(N)ncnc54)O[C@@H]3COP(=O)(O)O[C@H]3[C@@H](O)[C@H](n4cnc5c(N)ncnc54)O[C@@H]3COP(=O)(O)O[C@H]3[C@@H](O)[C@H](n4cnc5c(N)ncnc54)O[C@@H]3COP(=O)(O)O[C@H]3[C@@H](O)[C@H](n4cnc5c(N)ncnc54)O[C@@H]3COP(=O)(O)O[C@H]2[C@H]1O. As to the kind of experiment: purified protein. Conditions: 50 mM Tris-HCl pH 7.5, 2 mM MnCl2, 0.1 mg/mL BSA, 37 °C.

For series [9], the system named is Nc1ncnc2c1ncn2[C@@H]1O[C@H](CO)[C@@H](OP(=O)(O)O)[C@H]1O. Nature of the series: purified protein. Conditions: 50 mM Tris-HCl pH 7.5, 2 mM MnCl2, 0.1 mg/mL BSA, 37 °C.
Excerpt: as §2
For series [10], the system named is Nc1ncnc2c1ncn2[C@@H]1O[C@H](CO)[C@H]2OP(=O)(O)O[C@H]21. As to the kind of experiment: purified protein. Conditions: 50 mM Tris-HCl pH 7.5, 2 mM MnCl2, 0.1 mg/mL BSA, 37 °C, excess alkaline phosphatase.
Excerpt: as §1
Series [11] has as its system Nc1ncnc2c1ncn2[C@@H]1O[C@H](COP(=O)(O)OP(=O)(O)O)[C@@H](O)[C@H]1O. As to the kind of experiment: purified protein. Conditions: 50 mM Tris-HCl pH 7.5, 2 mM MnCl2, 0.1 mg/mL BSA, 37 °C.
Excerpt: as §2
In series [12] the test system is Nc1ncnc2c1ncn2[C@@H]1O[C@H](COP(=O)(O)OP(=O)(O)OP(=O)(O)OC[C@H]2O[C@@H](n3cnc4c(N)ncnc43)[C@H](O)[C@@H]2O)[C@@H](O)[C@H]1O. Nature of the series: purified protein. The following applies: 50 mM Tris-HCl pH 7.5, 2 mM MnCl2, 0.1 mg/mL BSA, 37 °C, excess alkaline phosphatase.
Excerpt: as §1
Series [13] deals with Nc1ncnc2c1ncn2[C@@H]1O[C@H](COP(=O)(O)OP(=O)(O)OP(=O)(O)OP(=O)(O)OC[C@H]2O[C@@H](n3cnc4c(N)ncnc43)[C@H](O)[C@@H]2O)[C@@H](O)[C@H]1O. As to the kind of experiment: purified protein. The following applies: 50 mM Tris-HCl pH 7.5, 2 mM MnCl2, 0.1 mg/mL BSA, 37 °C, excess alkaline phosphatase.
Excerpt: as §1
The test system of series [14] is Nc1ncnc2c1ncn2[C@@H]1O[C@H](COP(=O)(O)O[C@H]2[C@@H](O)[C@H](n3cnc4c(N)ncnc43)O[C@@H]2COP(=O)(O)O)[C@@H](O)[C@H]1O. Nature of the series: purified protein. Conditions: 50 mM Tris-HCl pH 7.5, 2 mM MnCl2, 0.1 mg/mL BSA, 37 °C.
The test system of series [15] is O=[N+]([O-])c1ccc(OP(=O)(O)Oc2ccc([N+](=O)[O-])cc2)cc1. As to the kind of experiment: purified protein. Conditions: 50 mM Tris-HCl pH 7.5, 2 mM MnCl2, 0.1 mg/mL BSA, 37 °C, excess alkaline phosphatase.
Excerpt: as §1
The subject of series [16] is O=c1ccn([C@@H]2O[C@H](CO)[C@@H](OP(=O)(O)O)[C@H]2O)c(=O)[nH]1. As to the kind of experiment: purified protein. Conditions: 50 mM Tris-HCl pH 7.5, 2 mM MnCl2, 0.1 mg/mL BSA, 37 °C.
Excerpt: as §2
Series [17] deals with O=c1ccn([C@@H]2O[C@H](CO)[C@H]3OP(=O)(O)O[C@H]32)c(=O)[nH]1. Nature of the series: purified protein. Conditions: 50 mM Tris-HCl pH 7.5, 2 mM MnCl2, 0.1 mg/mL BSA, 37 °C, excess alkaline phosphatase.
Excerpt: as §1
The subject of series [18] is [H][C@@]1(O)[C@]2([H])OP(=O)(O)OC[C@@]3([H])O[C@@]([H])(n4cnc5c(N)ncnc54)[C@]([H])(O)[C@]3([H])OP(=O)(O)OC[C@@]2([H])O[C@@]1([H])n1cnc2c(N)ncnc21. Nature of the series: purified protein. The following applies: 50 mM Tris-HCl pH 7.5, 2 mM MnCl2, 0.1 mg/mL BSA, 37 °C.

With `Nc1ncnc2c1ncn2[C@@H]1O[C@@H]2COP(=O)(O)O[C@H]3[C@@H](O)[C@H](n4cnc5c(N)ncnc54)O[C@@H]3COP(=O)(O)O[C@H]3[C@@H](O)[C@H](n4cnc5c(N)ncnc54)O[C@@H]3COP(=O)(O)O[C@H]3[C@@H](O)[C@H](n4cnc5c(N)ncnc54)O[C@@H]3COP(=O)(O)O[C@H]2[C@H]1O` [c-tetra-AMP], the Km in series [1] was determined as 262 ± 62.1 µM.
Broadly, the kcat is the maximal rate divided by the concentration of active sites. As a reminder, the kcat/Km is the second-order rate constant that governs catalysis at low substrate concentration. “S. enterica CpdB (Salmonella enterica subsp. enterica serovar Typhimurium str. LT2)”: the Km in [2] was determined as 4.52 ± 0.69 µM; in series [3], 2.13 ± 0.32 µM; in [4] it was 4.12 ± 0.98 µM; in series [5], 4.66 ± 1.34 µM; in [6] it was 7.52 ± 1.46 µM; in series [7], 18.44 ± 4.95 µM. The Km in [8] is given as 24.24 ± 7.60 µM; in series [9], 6.53 ± 1.16 µM; in [10] it was 14.41 ± 3.68 µM; in [11], 28.09 ± 1.82 µM; in series [12], 69.09 ± 19.31 µM; in [13] it was 49.21 ± 12.46 µM. Further, the Km in [14] was 0.22 ± 0.12 µM; in series [15] it was 33.74 ± 4.77 µM; in [16], 4.54 ± 0.53 µM; in series [17] it was 22.65 ± 2.56 µM; in [18] it was 8.89 ± 2.31 µM. In addition, the kcat in [2] was found to be 146 ± 9.39 s⁻¹; in [3] it was 0.3 ± 0.03 s⁻¹; in [4] it was 0.09 ± 0.01 s⁻¹; in [5] it was 219 ± 48.7 s⁻¹; in [6], 120 ± 4.74 s⁻¹; in series [7], 0.042 ± 0.001 s⁻¹. Besides, the kcat in [8] is 0.006 ± 0.001 s⁻¹; in series [9], 172 ± 41.3 s⁻¹; in series [10], 209 ± 16.9 s⁻¹; in series [11], 2.83 ± 0.19 s⁻¹; in series [12], 2.1 ± 0.17 s⁻¹; in [13] it was 2.64 ± 0.24 s⁻¹. Further, the kcat in series [14] was 2.85 ± 1.04 s⁻¹; in series [15], 250 ± 9.82 s⁻¹; in series [16], 155 ± 13.3 s⁻¹; in [17] it was 324 ± 21.8 s⁻¹; in series [18] it was 0.31 ± 0.06 s⁻¹. Moreover, the kcat/Km in series [2] is 3.32e+07 M⁻¹ s⁻¹; in series [3], 197000 M⁻¹ s⁻¹; in series [4] it was 22400 M⁻¹ s⁻¹; in series [5], 5.23e+07 M⁻¹ s⁻¹; in series [6], 1.63e+07 M⁻¹ s⁻¹; in series [7], 2370 M⁻¹ s⁻¹. The kcat/Km in series [8] was 238 M⁻¹ s⁻¹; in series [9], 2.76e+07 M⁻¹ s⁻¹; in [10] it was 1.53e+07 M⁻¹ s⁻¹; in series [11], 101000 M⁻¹ s⁻¹; in [12], 31600 M⁻¹ s⁻¹; in [13], 55000 M⁻¹ s⁻¹. The kcat/Km in series [14] was 1.39e+07 M⁻¹ s⁻¹; in [15] it was 7.53e+06 M⁻¹ s⁻¹; in series [16], 3.42e+07 M⁻¹ s⁻¹; in [17] it was 1.44e+07 M⁻¹ s⁻¹; in [18] it was 35500 M⁻¹ s⁻¹.
Turning to `Nc1ncnc2c1ncn2[C@@H]1O[C@@H]2COP(=O)(O)O[C@H]3[C@@H](O)[C@H](n4cnc5c(N)ncnc54)O[C@@H]3COP(=O)(O)O[C@H]3[C@@H](O)[C@H](n4cnc5c(N)ncnc54)O[C@@H]3COP(=O)(O)O[C@H]3[C@@H](O)[C@H](n4cnc5c(N)ncnc54)O[C@@H]3COP(=O)(O)O[C@H]3[C@@H](O)[C@H](n4cnc5c(N)ncnc54)O[C@@H]3COP(=O)(O)O[C@H]3[C@@H](O)[C@H](n4cnc5c(N)ncnc54)O[C@@H]3COP(=O)(O)O[C@H]2[C@H]1O` [c-hexa-AMP], in series [1], the Km stood at 2.63 ± 0.88 µM.

Source of the values: PMC9958556, “Genomic Distribution of Pro-Virulent cpdB-like Genes in Eubacteria and Comparison of the Enzyme Specificity of CpdB-like Proteins from Salmonella enterica, Escherichia coli and Streptococcus suis” (International Journal of Molecular Sciences, 2023).
